Among the data in patent US20170327535A1 are Ka and 55% DBC values, retold here.

In assay [1] the target is aIgE-Fab (Fab fragment of Omalizumab, Xolair). The experiment in a line: SPR Biacore 3000, Fab on CM5 chip, peptide analyte, 1:1 fit. (In general: Surface plasmon resonance follows binding to a sensor surface in real time, without labels.)
For assay [2], the target named is aRSV-Fab (Fab fragment of Palivizumab, Synagis). The description is as above.
The target of assay [3] is aTNFa-Fab (Fab fragment of Infliximab, Remicade). Described as above.
The target is the same in assay [4]. The experiment in a line: dynamic binding capacity on a 1 mL-gel column, 1 mg/mL aTNFa-Fab at […], 55% breakthrough.

Regarding “LB1t-Wild.1d (B1 domain of PpL312 with deletion of the N-terminal region)”, the figures for the Ka in assay [1], in assay [2] and in assay [3] were 1.12e+09 M⁻¹, 4.4e+06 M⁻¹ and 30000 M⁻¹, respectively.
In assay [2], “LB2t-Wild.1d (B2 domain of PpL312 with deletion of the N-terminal region)” gave a Ka of 1e+06 M⁻¹.
In assay [1], “LB3t-Wild.1d (B3 domain of PpL312 with deletion of the N-terminal region)” had a Ka of 3.77e+08 M⁻¹.
On to “LB4t-Wild.1d (B4 domain of PpL312 with deletion of the N-terminal region)”, for which the Ka in assay [1] was 1.08e+09 M⁻¹; in assay [2], 1.38e+07 M⁻¹; in assay [3], 300000 M⁻¹.
Turning to “LB5t-Wild.1d (B5 domain of Protein L of Peptostreptococcus magnus 312 strain with deletion of the N-terminal region, single domain)”, the Ka in assay [1] amounted to 4.43e+08 M⁻¹; in assay [3], 700000 M⁻¹.
Take “LC1t-Wild.1d (C1 domain of PpL3316 with deletion of the N-terminal region)”: the Ka in assay [1] came out at 2.71e+07 M⁻¹; in assay [2], 2.3e+06 M⁻¹.
“LC2t-Wild.1d (C2 domain of PpL3316 with deletion of the N-terminal region)” came in with a Ka in assay [2] of 9.2e+06 M⁻¹.
“LC3t-Wild.1d (C3 domain of PpL3316 with deletion of the N-terminal region)” showed a Ka in assay [2] of 8.7e+06 M⁻¹.
For the substance “LC4t-Wild.1d (C4 domain of PpL3316 with deletion of the N-terminal region)”, the Ka in assay [1] turned out to be 4.18e+09 M⁻¹; in assay [2], 1.93e+07 M⁻¹.
The substance “commercially available Protein L carrier (HiTrap Protein L, GE Healthcare Bioscience)” came in with a 55% DBC in assay [4] of 4.8 mg/mL/gel.
